Reference: patent US20240383984A1 (Genentech, published 2024)

T1: human FcRH5 protein fragment (soluble) (human, UniProt Q96RD9 16-851)
T1 construct: whole entry named; also called soluble human FcRH5; Human FcRH5 (BIACORE analyte)
T1 sequence: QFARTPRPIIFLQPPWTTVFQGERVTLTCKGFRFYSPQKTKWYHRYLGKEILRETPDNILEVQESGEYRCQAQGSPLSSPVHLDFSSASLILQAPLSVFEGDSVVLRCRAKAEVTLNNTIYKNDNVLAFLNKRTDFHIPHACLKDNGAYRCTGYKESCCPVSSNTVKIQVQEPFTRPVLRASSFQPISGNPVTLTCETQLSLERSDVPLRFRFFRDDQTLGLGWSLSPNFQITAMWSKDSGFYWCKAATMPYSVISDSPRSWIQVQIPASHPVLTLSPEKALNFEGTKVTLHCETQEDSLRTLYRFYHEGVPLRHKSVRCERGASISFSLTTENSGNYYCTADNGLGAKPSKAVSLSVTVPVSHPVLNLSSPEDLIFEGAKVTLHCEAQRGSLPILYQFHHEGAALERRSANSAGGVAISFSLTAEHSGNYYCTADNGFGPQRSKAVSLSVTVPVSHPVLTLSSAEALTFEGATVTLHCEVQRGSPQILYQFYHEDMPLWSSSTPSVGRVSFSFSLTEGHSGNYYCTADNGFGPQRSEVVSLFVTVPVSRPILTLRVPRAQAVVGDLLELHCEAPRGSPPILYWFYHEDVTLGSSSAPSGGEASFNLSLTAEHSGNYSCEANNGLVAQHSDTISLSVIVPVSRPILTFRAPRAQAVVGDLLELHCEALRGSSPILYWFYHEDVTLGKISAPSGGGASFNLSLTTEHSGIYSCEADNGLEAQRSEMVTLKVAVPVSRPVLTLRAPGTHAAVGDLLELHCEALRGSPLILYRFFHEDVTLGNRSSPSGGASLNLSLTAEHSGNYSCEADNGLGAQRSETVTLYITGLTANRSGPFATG

T2: cynomolgus FcRH5 protein fragment (soluble) (cynomolgus monkey)
T2 construct: whole entry named; also called Cyno FcRH5 (BIACORE analyte)
T2 chain: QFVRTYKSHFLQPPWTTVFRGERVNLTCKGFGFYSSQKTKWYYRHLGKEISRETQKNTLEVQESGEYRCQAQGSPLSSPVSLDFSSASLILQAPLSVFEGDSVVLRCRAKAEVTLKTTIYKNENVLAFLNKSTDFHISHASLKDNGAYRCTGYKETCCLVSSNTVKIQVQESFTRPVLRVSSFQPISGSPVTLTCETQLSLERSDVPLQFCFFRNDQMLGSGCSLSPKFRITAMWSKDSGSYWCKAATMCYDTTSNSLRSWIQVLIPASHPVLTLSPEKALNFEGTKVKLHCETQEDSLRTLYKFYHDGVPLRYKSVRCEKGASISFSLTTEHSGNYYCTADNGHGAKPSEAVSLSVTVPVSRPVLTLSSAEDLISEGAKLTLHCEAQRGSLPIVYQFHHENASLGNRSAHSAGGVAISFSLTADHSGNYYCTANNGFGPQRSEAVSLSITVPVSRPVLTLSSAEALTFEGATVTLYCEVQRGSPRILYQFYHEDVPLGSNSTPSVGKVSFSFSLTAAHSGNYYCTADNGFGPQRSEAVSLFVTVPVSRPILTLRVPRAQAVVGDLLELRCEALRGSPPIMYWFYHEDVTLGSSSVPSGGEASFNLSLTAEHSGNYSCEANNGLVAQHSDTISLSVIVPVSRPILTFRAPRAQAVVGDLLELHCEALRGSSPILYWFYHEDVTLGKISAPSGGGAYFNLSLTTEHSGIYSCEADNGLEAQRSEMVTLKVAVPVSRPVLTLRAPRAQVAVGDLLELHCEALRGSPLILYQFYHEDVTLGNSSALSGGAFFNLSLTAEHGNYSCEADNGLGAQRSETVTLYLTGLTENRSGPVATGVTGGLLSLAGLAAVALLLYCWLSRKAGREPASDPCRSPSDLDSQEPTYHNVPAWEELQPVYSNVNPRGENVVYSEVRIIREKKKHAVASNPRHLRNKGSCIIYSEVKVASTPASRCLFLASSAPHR


Assays:
[1] = target: T1, human FcRH5 protein fragment (soluble); assay: SPR, hIgG capture, screening
[2] = target: T1, human FcRH5 protein fragment (soluble); assay: SPR, hIgG capture, 1:1 model
Description: (§1) Briefly, a human IgG capture surface was generated on a Series S CM5 chip using amine coupling and the human IgG capture kit (GE Life Sciences, Piscataway, NJ). Test antibodies were then captured on flow cells 2, 3, or 4, with flow cell 1 used as a reference. An FcRH5 protein fragment was used as the analyte, with a flow rate of […]. Between injections the capture surface was regenerated by a 30-second injection of 3M magnesium chloride or 10 mM glycine, pH 1.5. Interactions were assessed at 25° C. in 10 mM HEPES pH7.4, 150 mM NaCl, and 0.05% Tween 20 (HBSP). Reference data from the reference flow cell and from injection of buffer alone were subtracted prior to kinetic analysis. Kinetic information was calculated by fitting data to a 1:1 binding model. Reference subtraction and data fitting were performed using BIAevaluation software (GE Life Sciences, Piscataway, NJ).
(§2) Kinetic characterization experiments were carried out (see Table 8). In these experiments, binding of soluble FcRH5 protein fragment to purified antibodies in human TDB antibody format was analyzed at six different non-zero concentrations (a 1:3 dilution series, one concentration injected twice as a replicate). Flow rate was set at 40 μl/min and association and dissociation monitored for 600 s.

[3] = target: T2, cynomolgus FcRH5 protein fragment …; assay: SPR, hIgG capture, 1:1 model
Description: as §1, §2

[4] = target: T1, human FcRH5 protein fragment (soluble); assay: BIACORE, human IgG1, soluble human FcRH5
[5] = target: T1, human FcRH5 protein fragment (soluble); assay: SPR (BIACORE), IgG captured via anti-human IgG, FcRH5 protein fragment as analyte (100 and 500 nM)

Row | Binder | Kd [1] | Kd [2] | koff [2] | kon [2] | Kd [3] | koff [3] | kon [3] | Fold improvement over hu1G7.v1 [4] | Kd [4] | Kd [5] | Fold improvement over hu1G7.v86 [4]
1 | hu1G7.v85 (hIgG1) (antibody, V domains shown, bivalent hIgG1; also called hu1G7.v1.4.M64V) VH: EVQLVESGPGLVKPSETLSLTCTVSGFSLTRFGVHWVRQPPGKGLEWLGVIWRGGSTDYNAAFVSRLTISKDNSKNQVSLKLSSVTAADTAVYYCSNHYYGSSDYALDNWGQGTLVTVSS VL: DIQMTQSPSSLSASVGDRVTITCKASQDVRNLVVWFQQKPGKAPKLLIYSGSYRYSGVPSRFSGSGSGTDFTLTISSLQPEDFATYYCQQHYSPPYTFGQGTKVEIK | 2.5 nM | 2.5 nM | 0.002 s⁻¹ | 600000 M⁻¹ s⁻¹ | 7.2 nM | 0.001 s⁻¹ | 100000 M⁻¹ s⁻¹ | 17 fold | 0.8 nM | 2.5 nM | –
2 | hu1G7.v1.4 (hIgG1) (antibody, V domains shown, hIgG1) VH: EVQLVESGPGLVKPSETLSLTCTVSGFSLTRFGVHWVRQPPGKGLEWLGVIWRGGSTDYNAAFMSRLTISKDNSKNQVSLKLSSVTAADTAVYYCSNHYYGSSDYALDNWGQGTLVTVSS VL: DIQMTQSPSSLSASVGDRVTITCKASQDVRNLVVWFQQKPGKAPKLLIYSGSYRYSGVPSRFSGSGSGTDFTLTISSLQPEDFATYYCQQHYSPPYTFGQGTKVEIK | – | 2.6 nM | 0.002 s⁻¹ | 700000 M⁻¹ s⁻¹ | 7.7 nM | 0.001 s⁻¹ | 100000 M⁻¹ s⁻¹ | – | – | – | –
3 | hu1G7.v86 (antibody, human IgG1, V domains shown, human IgG1) VH: EVQLVESGPGLVKPSETLSLTCTVSGFSLTRFGVHWVRQPPGKGLEWLGVIWRGGSTDYNAAFVSRLTISKDNSKNQVSLKLSSVTAADTAVYYCSNHYYGSSDYALDNWGQGTLVTVSS VL: DIQMTQSPSSLSASVGDRVTITCKASQDVSNLVVWFQQKPGKSPKLLIYSGSYRYSGVPSRFSGSGSGTDFTLTISSLQPEDFATYYCQQHYSPPYTFGQGTKVEIK | – | – | – | – | – | – | – | 10.3 fold | 1.4 nM | – | –
4 | hu1G7.v92 (antibody, human IgG1, V domains shown, human IgG1) VH: EVQLVESGPGLVKPSETLSLTCTVSGFSLTRFGVHWVRQPPGKGLEWLGVIWRGGSTDYNAAFVSRLTISKDNSKNQVSLKLSSVTAADTAVYYCSNHYYGSPDYALDNWGQGTLVTVSS VL: DIQMTQSPSSLSASVGDRVTITCKASQDVSNLVVWFQQKPGKSPKLLIYSGSYRYSGVPSRFSGSGSGTDFTLTISSLQPEDFATYYCQQHYSPPYTFGQGTKVEIK | – | – | – | – | – | – | – | 15.9 fold | 0.9 nM | – | 1.5 fold

Results, then the binder that gave them:

Row | Kd [1] | Kd [2] | koff [2] | kon [2] | Kd [3] | koff [3] | kon [3] | Fold improvement over hu1G7.v1 [4] | Kd [4] | Kd [5] | Fold improvement over hu1G7.v86 [4] | Binder
5 | – | – | – | – | – | – | – | 25.3 fold | 0.6 nM | – | 2.5 fold | hu1G7.v93 (antibody, human IgG1, V domains shown, human IgG1) VH: EVQLVESGPGLVKPSETLSLTCTVSGFSTTRFGVHWVRQPPGKGLEWLGVIWRGGSTDYNAAFVSRLTISKDNSKNQVSLKLSSVTAADTAVYYCSNHYYGSPDYALDNWGQGTLVTVSS VL: DIQMTQSPSSLSASVGDRVTITCKASQDVSNLVVWFQQKPGKAPKLLIYSGSYRYSGVPSRFSGSGSGTDFTLTISSLQPEDFATYYCQQHYSPPYTFGQGTKVEIK
6 | – | – | – | – | – | – | – | – | 0.7 nM | – | – | hu1G7.v91 (antibody, human IgG1, V domains shown) VH: EVQLVESGPGLVKPSETLSLTCTVSGFSTTRFGVHWVRQPPGKGLEWLGVIWRGGSTDYNAAFVSRLTISKDNSKNQVSLKLSSVTAADTAVYYCSNHYYGSSDYALDNWGQGTLVTVSS VL: DIQMTQSPSSLSASVGDRVTITCKASQDVSNLVVWFQQKPGKSPKLLIYSGSYRYSGVPSRFSGSGSGTDFTLTISSLQPEDFATYYCQQHYSPPYTFGQGTKVEIK
